In PMC7274780:

Molecular target: Salmonella typhimurium oxaloacetate decarboxylase sodium pump (StOAD) β subunit (Salmonella typhimurium) (UniProt Q03031)
Assay: cryo-EM structure; purified StOAD βγ sub-complex in 20 mM Tris pH 7.5, 100 mM sodium chloride, 2 mM DTT, 0.02% DDM; C3 symmetry imposed; 3.88 Å

Salmonella typhimurium oxaloacetate decarboxylase sodium pump (StOAD) β subunit (from UniProt Q03031 1-433) (natural protein)
stoichiometry N: 3
